This note sets out measurements from patent US20200254053A1.

No end group written: not given here. dPEG24 = 24 PEG moieties

The target in the test is C1q as present in the human serum or plasma of the hemolytic assays (human) (UniProt P02745). The test can be described thus: cell-based or functional assay.
Sequence of UniProt P02745 (P02745 23-245 limits assumed, chain 1 of 3): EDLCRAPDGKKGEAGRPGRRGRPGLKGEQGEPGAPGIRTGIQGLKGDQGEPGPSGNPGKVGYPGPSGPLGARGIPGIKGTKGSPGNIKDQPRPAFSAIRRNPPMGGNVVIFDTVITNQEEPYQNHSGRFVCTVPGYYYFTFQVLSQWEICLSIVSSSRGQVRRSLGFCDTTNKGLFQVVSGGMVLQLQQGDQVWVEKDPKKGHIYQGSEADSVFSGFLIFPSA
Sequence of UniProt P02745 (P02746 28-253 limits assumed, chain 2 of 3, further chain): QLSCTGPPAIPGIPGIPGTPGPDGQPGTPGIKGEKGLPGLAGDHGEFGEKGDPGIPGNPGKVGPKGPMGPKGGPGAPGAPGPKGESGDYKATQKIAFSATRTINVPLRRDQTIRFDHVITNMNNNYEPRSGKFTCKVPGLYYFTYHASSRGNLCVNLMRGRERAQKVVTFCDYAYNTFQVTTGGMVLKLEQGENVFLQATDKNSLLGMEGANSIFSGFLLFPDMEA
Sequence of UniProt P02745 (P02747 29-245 limits assumed, chain 3 of 3, further chain): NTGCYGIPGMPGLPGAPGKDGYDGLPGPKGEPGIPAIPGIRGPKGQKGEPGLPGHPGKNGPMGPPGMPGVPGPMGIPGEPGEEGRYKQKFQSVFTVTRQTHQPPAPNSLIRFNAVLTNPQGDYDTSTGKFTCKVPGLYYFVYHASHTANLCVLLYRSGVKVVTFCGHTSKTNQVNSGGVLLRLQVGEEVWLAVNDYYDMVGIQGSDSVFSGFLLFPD

With IALILEPICCQERAA-dPEG24 (cysteine pairing not given here) [PA-dPEG24], the Hemolysis in presence of PA-dPEG24 (Abs 412 nm), type-O donor #1 plasma with B+ erythrocytes (0.747 without peptide) came out at 0.008 Abs 412 nm and the inhibition of hemolysis, type-O plasma with type-B erythrocytes, dose response (FIG. 8) was greater than 95%.
